In US20250236650A1:

Molecular target: murine CTLA-4 fused to CD3ζ, expressed on the murine T-cell hybridoma 58α-β-CTLA-4/CD3ζ (murine) (UniProt P09793)
Experiment: flow cytometry on 58α-β-CTLA-4/CD3ζ cells, R-PE donkey anti-mouse IgG secondary antibody, MFI

mouse anti-mouse CTLA-4 antibody 9D9, mouse IgG2b isotype (original isotype, derived from the hybridoma), sequence (light): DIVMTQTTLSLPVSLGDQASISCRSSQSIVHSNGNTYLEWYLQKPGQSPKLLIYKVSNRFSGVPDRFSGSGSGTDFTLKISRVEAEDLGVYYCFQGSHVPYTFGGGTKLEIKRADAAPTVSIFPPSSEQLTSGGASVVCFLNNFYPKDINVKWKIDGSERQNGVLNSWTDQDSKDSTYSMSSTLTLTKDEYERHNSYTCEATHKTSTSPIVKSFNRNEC
mouse anti-mouse CTLA-4 antibody 9D9, mouse IgG2b isotype (original isotype, derived from the hybridoma), sequence (heavy): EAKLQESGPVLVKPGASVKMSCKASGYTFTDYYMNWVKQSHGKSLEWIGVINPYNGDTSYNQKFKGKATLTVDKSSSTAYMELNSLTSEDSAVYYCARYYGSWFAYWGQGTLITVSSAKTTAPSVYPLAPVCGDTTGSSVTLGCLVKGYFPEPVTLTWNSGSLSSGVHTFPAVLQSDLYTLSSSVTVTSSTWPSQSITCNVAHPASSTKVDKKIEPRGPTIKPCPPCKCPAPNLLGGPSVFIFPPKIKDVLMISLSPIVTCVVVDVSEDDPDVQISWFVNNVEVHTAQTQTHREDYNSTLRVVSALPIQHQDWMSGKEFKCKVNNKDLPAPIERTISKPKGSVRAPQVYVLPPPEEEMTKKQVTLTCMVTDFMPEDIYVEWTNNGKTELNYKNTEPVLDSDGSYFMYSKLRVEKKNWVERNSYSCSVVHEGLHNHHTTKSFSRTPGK
mouse anti-mouse CTLA-4 antibody 9D9, mouse IgG2a isotype, sequence (light): as the sequence (light) above
mouse anti-mouse CTLA-4 antibody 9D9, mouse IgG2a isotype, sequence (heavy): as the sequence (heavy) above
mouse anti-mouse CTLA-4 antibody 9D9, mouse IgG1 isotype, sequence (light): as the sequence (light) above
mouse anti-mouse CTLA-4 antibody 9D9, mouse IgG1 isotype, sequence (heavy): as the sequence (heavy) above

Row | EC50 (read off the curve) [µg/mL] | Substance
1 | 0.6 | mouse anti-mouse CTLA-4 antibody 9D9, mouse IgG1 isotype
2 | 0.2 | mouse anti-mouse CTLA-4 antibody 9D9, mouse IgG1 isotype containing a D265A mutation (from UniProt P01868 1-324)
3 | 0.7 | mouse anti-mouse CTLA-4 antibody 9D9, mouse IgG2a isotype
4 | 0.4 | mouse anti-mouse CTLA-4 antibody 9D9, mouse IgG2b isotype (original isotype, derived from the hybridoma)
